Experimental findings from patent US20170101472A1 (Regeneron, published 2017) are described below.

The labels stand for the following.
B1: H4sH15482P (antibody, human IgG4 S228P, kappa)
heavy: QVQLVESGGGVVQPGRSLRLSCVASGFTFSSYGMHWVRQAPGKGLEWVAIIWYDGSNKYYADSVKGRFTISRDNSKNTQYLQMNSLRAEDTAVYYCASVATSGDFDYYGMDVWGQGTTVTVSSASTKGPSVFPLAPCSRSTSESTAALGCLVKDYFPEPVTVSWNSGALTSGVHTFPAVLQSSGLYSLSSVVTVPSSSLGTKTYTCNVDHKPSNTKVDKRVESKYGPPCPPCPAPPVAGPSVFLFPPKPKDTLMISRTPEVTCVVVDVSQEDPEVQFNWYVDGVEVHNAKTKPREEQFNSTYRVVSVLTVLHQDWLNGKEYKCKVSNKGLPSSIEKTISKAKGQPREPQVYTLPPSQEEMTKNQVSLTCLVKGFYPSDIAVEWESNGQPENNYKTTPPVLDSDGSFFLYSRLTVDKSRWQEGNVFSCSVMHEALHNHYTQKSLSLSLGK
light: EIVLTQSPATLSLSPGERTTLSCRASQRISTYLAWYQQKPGQAPRLLIYDASKRATGIPARFSGSGSGTGFTLTISSLEPEDFAVYYCQQRSNWPLTFGGGTKVEIKRTVAAPSVFIFPPSDEQLKSGTASVVCLLNNFYPREAKVQWKVDNALQSGNSQESVTEQDSKDSTYSLSSTLTLSKADYEKHKVYACEVTHQGLSSPVTKSFNRGEC
notes: H4sH = modified human IgG4 Fc; also called mAb1
B2: H4H15482P (antibody, human IgG4 S228P, kappa)
heavy: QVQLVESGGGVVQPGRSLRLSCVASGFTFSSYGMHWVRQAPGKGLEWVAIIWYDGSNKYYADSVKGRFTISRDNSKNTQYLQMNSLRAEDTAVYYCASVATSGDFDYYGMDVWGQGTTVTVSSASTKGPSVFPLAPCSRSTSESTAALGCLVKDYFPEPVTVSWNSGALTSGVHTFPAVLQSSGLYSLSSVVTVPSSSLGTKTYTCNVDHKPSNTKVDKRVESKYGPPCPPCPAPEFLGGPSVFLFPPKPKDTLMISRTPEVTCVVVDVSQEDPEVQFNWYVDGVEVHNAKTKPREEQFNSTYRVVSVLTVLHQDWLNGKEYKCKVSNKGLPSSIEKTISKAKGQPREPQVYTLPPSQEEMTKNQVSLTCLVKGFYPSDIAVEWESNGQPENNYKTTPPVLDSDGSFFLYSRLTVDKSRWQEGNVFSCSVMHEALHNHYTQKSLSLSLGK
light: B1 light
notes: H4H = human IgG4 Fc with S108P
B3: H4sH15498P2 (antibody, V domains shown)
VH: EVQLVESGGGLVQPGGSLRLSCAASGFTFTSYAMTWVRQAPGKGLEWVSDISGSGGRTYYADSVKGRFTISRDNSKNMLYLQMNILRAEDTAVYHCAKGTGQQVDLYNYYYALDVWGQGTTVTVSS
VL: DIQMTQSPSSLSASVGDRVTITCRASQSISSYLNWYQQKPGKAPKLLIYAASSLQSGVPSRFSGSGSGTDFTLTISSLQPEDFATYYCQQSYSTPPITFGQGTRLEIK
notes: H4sH = human IgG4 Fc with 2 or more amino acid changes as disclosed in US20140243504
B4: H4H15498P2 (antibody, human IgG4, V domains shown)
VH: B3 VH
VL: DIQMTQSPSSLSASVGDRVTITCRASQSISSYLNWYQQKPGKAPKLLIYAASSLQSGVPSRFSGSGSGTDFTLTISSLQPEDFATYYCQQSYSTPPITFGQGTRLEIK
notes: H4H = human IgG4 Fc with S108P hinge mutation
B5: H4sH14813N (antibody, human IgG4 S228P, kappa, V domains shown)
VH: QVQLQQWGAGLLKPSETLSLTCAVYGGSFSGYYWNWIRQPPGKGLEWVGEISHRGSTNYNPSLKSRVTISLDTSKNQFSLKLTSVTAADTAVYYCSRDEELEFRFFDYWGQGTLVTVSS
VL: EIVLTQSPATLSLSPGERATLSCRASQSVSSYLAWYQQKPGQAPRLLVYGASNRATGIPARFSGSGSGTDFTLTISSLEPEDFAFYYCQQRSNWPLTFGGGTKVEIKR
notes: H4sH = modified human IgG4 Fc
B6: H4H15479P (antibody, human IgG4, V domains shown)
VH: QVQLQQWGAGLLNPSETLSLTCAVYGGAFSDYYWNWIRQPPGKGLEWIGEINHRGSTNYNPSLKSRVTISVDTSKNQFSLRMSSVTAADAAVYYCARGEDYDIWNGYYQEKWGQGTLVTVSS
VL: EIVLTQSPATLSLSPGERATLSCRASQSISTYLAWYQQKPGQAPRLLIYDASKRATGIPARFSGSGSGTDFTLTISSLEPEDFVVYYCHQRSNWPLTFGGGTKVEIK
B7: H4H14813N (antibody, human IgG4, V domains shown)
VH: B5 VH
VL: B6 VL with I29V, T31S, I48V, D50G, K53N, V84A, V85F, H89Q
notes: as for B4

Residue numbers refer to the chain shown, from its start. Names may count otherwise.

One experiment concerns the target T1, human LAG3 expressed on HEK293 cells (human, UniProt P18627 23-525).
T1 construct: also called hLAG3; HEK293/hLAG3
T1 sequence: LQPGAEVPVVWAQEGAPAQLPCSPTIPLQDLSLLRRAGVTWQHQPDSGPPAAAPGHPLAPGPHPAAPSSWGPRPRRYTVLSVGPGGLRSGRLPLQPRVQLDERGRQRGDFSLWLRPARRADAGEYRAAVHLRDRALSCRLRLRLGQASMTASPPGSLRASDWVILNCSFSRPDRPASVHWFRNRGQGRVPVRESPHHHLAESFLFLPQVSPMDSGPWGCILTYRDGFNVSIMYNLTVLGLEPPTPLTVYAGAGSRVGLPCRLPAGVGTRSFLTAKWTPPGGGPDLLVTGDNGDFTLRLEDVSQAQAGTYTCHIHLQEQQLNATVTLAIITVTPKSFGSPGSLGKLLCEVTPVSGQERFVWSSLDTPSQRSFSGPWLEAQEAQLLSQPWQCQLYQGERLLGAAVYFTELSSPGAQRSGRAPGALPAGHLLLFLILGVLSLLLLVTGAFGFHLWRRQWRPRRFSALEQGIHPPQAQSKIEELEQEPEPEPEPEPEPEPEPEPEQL
Description: flow cytometry, HEK293/hLAG3 cells. The procedure:
The serially diluted antibodies were added to the cell suspension and incubated for 15-30 minutes on ice. The cells were centrifuged and pellets were washed with staining buffer to remove unbound antibodies. […] The cells were centrifuged and pellets were washed with staining buffer to remove unbound secondary F(ab′)2 and fixed overnight with a 1:1 dilution of Cytofix (BD Biosciences, #554655) and staining buffer. Following day, fixed cells were centrifuged and pellets were washed with staining buffer, resuspended and filtered. Fluorescence measurements were acquired on HyperCyt® cytometer and analyzed in ForeCyt™ (IntelliCyt; Albuquerque, N. Mex.) to determine the mean fluorescence intensities (MFI). The EC₅₀ values were calculated from a four-parameter logistic equation over an 11-point response curve using GraphPad Prism. EC₅₀ was defined as the concentration of antibody at which 50% of maximal binding signal is detected. The MFI ratio for each antibody was calculated by dividing the MFI at 100 nM by MFI at 0 nM of antibody concentration.
On the technique in general: In flow cytometry, cells or beads pass a laser one at a time.
For the molecule B1, the EC50 – broadly, the concentration giving half of the maximal effect – was 1.11 nM.

Take B2: the EC50 amounted to 1.91 nM. This EC50 is about 1.7-fold higher than that of the molecule before.

On to B3, for which the EC50 was 7.92 nM and the “Ratio of MFI (100 nM/0 nM)” value turned out to be 401.

With B4, the EC50 amounted to 5.76 nM and the “Ratio of MFI (100 nM/0 nM)” value came out at 305.

With B5, the EC50 is 1.18 nM and the “Ratio of MFI (100 nM/0 nM)” value was 197.

For B6, it took 0.752 nM to reach a half-maximal effect (EC50) and the “Ratio of MFI (100 nM/0 nM)” value came to 203.

With B7, the midpoint of the response, the EC50, lay at 1.44 nM and the “Ratio of MFI (100 nM/0 nM)” value came to 208.

The target of the next experiment is T2, recombinant human LAG3 expressed with a C-terminal mouse IgG2a mFc tag (human).
T2 construct: Called dimeric; also called hLAG3-mFc; hLAG3 dimer
T2 chain: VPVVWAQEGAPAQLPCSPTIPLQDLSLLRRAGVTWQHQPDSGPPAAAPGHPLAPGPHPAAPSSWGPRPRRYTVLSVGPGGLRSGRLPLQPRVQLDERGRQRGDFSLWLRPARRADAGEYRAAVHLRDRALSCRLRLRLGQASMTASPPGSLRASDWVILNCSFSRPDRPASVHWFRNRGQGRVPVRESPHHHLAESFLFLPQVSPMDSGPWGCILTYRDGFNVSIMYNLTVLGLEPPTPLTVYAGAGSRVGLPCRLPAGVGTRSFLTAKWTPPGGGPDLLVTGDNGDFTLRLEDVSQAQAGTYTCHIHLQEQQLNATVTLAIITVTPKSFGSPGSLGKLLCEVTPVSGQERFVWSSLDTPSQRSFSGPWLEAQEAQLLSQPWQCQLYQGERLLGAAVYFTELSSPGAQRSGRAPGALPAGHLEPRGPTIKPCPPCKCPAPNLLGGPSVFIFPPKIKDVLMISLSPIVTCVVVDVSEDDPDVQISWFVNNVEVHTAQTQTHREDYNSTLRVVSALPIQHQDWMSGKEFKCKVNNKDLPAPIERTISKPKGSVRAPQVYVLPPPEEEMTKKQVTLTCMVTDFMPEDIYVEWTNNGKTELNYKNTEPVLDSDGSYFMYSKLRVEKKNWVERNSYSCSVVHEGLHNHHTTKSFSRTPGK
Description: SPR, mAb captured, 25 C. The procedure:
(§1) The BiaCore sensor surface was derivatized with either a polyclonal rabbit anti-mouse antibody (GE, # BR-1008-38) or with a monoclonal mouse anti-human Fc antibody (GE, # BR-1008-39) to capture approximately 50-85 RUs of anti-LAG3 monoclonal antibodies, expressed with either a mouse Fc or a human Fc, respectively. […] The binding of the LAG3 reagents to captured monoclonal antibodies was monitored for 4 minutes while their dissociation from the antibodies was monitored for 8 minutes in HBST running buffer (0.01 M HEPES pH 7.4, 0.15 M NaCl, 3 mM EDTA, 0.05% v/v Surfactant P20). Experiments were performed at 25° C. and 37° C. Kinetic association (kₐ) and dissociation (kd) rate constants were determined by processing and fitting the data to a 1:1 binding model using Scrubber 2.0c curve fitting software. Binding dissociation equilibrium constants (KD) and dissociative half-lives (t_{1/2}) were then calculated from the kinetic rate constants as: KD (M)=kd/kₐ and t_{1/2} (min)=[ln2/(60*kd)].
Take B1: the Kd (in general, a measure of binding affinity in units of concentration) is not above 0.0141 nM and the t1/2 was not below 19.2 h.

Take B2: the Kd is not above 0.0132 nM and the t1/2 is not below 19.2 h.

B3: the equilibrium dissociation constant (Kd) was not above 0.0352 nM; the koff (as a rule, the rate constant with which the complex falls apart) was not above 1e-05 s⁻¹; the kon – broadly, the second-order rate constant of association – was found to be 284000 M⁻¹ s⁻¹; the t1/2 is not below 19.2 h.

In the case of B4, the Kd is not above 0.0276 nM, the koff is not above 1e-05 s⁻¹, the kon worked out at 363000 M⁻¹ s⁻¹ and the t1/2 is not below 19.2 h.

Regarding B5, the Kd is 0.0106 nM, the koff was 1.9e-05 s⁻¹, the kon is 1.8e+06 M⁻¹ s⁻¹ and the t1/2 came to 10.1 h.

B6: the Kd is not above 0.00435 nM, the koff is not above 1e-05 s⁻¹, the kon worked out at 2.3e+06 M⁻¹ s⁻¹ and the t1/2 is not below 19.2 h.

As for B7, the Kd is not above 0.0104 nM, the koff is not above 1e-05 s⁻¹, the kon was determined as 958000 M⁻¹ s⁻¹ and the t1/2 is not below 19.2 h.

Another experiment deals with T3, recombinant human LAG3 expressed with a C-terminal myc-myc-hexahistidine tag (human, UniProt P18627 29-450).
T3 construct: also called hLAG3-mmh; hLAG3.mmh
Description: SPR, mAb captured, 25 C. On the procedure:
as §1
In general terms: In SPR one partner is held on a chip, and binding of the other changes the refractive index at the surface.
In the case of B1, the Kd was 1.23 nM and the t1/2 was determined as 0.742 h.

In the case of B2, the Kd amounted to 0.972 nM and the t1/2 came to 0.995 h.

On to B3, for which the Kd is 0.645 nM, the koff was determined as 0.000101 s⁻¹, the kon came to 157000 M⁻¹ s⁻¹ and the t1/2 was 1.9 h.

On to B4, for which the Kd came to 0.26 nM, the koff was 7.81e-05 s⁻¹, the kon came out at 301000 M⁻¹ s⁻¹ and the t1/2 worked out at 2.46 h.

With B5, the Kd stood at 0.177 nM, the koff amounted to 7.89e-05 s⁻¹, the kon was 445000 M⁻¹ s⁻¹ and the t1/2 is 2.44 h.

In the case of B6, the Kd turned out to be 0.0493 nM, the koff stood at 5.35e-05 s⁻¹, the kon worked out at 1.09e+06 M⁻¹ s⁻¹ and the t1/2 worked out at 3.6 h.

As for B7, the Kd came to 0.214 nM, the koff came out at 8.8e-05 s⁻¹, the kon was 411000 M⁻¹ s⁻¹ and the t1/2 is 2.19 h.

In another experiment the target is T1, human LAG3 expressed on HEK293 cells. Description: electrochemiluminescence cell binding. On the procedure: To investigate the ability of a panel of anti-LAG3 monoclonal antibodies to bind cell-surface expressed LAG3, an in vitro binding assay utilizing human and monkey LAG3 expressing cell lines in an electrochemiluminescence based detection platform [Meso Scale Diagnostics, Rockville, Md.—(MSD)] was developed.
Experiments were carried out according to following procedure. Cells from the three cell lines described above were rinsed once in 1×PBS buffer without Ca²⁺/Mg²⁺ followed by 10-minute incubation at 37° C. with Enzyme Free Cell Dissociation Solution. […] Approximately 10,000 cells per well in the cell-washing buffer were seeded into the 96-well carbon electrode plates (MULTI-ARRAY high bind plate, MSD) and incubated for 1 hour at 37° C. to allow the cells to adhere. Nonspecific binding sites were blocked by 2% BSA (w/v) in PBS for 1 hour at room temperature. […] The plates were then washed to remove the unbound antibodies using an AquaMax2000 plate washer (MDS Analytical Technologies). The plate-bound antibodies were detected with a SULFO-TAG™-conjugated anti-human IgG antibody (MSD) for 1 hour at room temperature. After washes, the plates were developed with the Read Buffer (MSD) according to manufacturer's recommended procedure and the luminescent signals were recorded with a SECTOR Imager 6000 (MSD) instrument. The direct binding signals (in relative light units—RLU) were analyzed as a function of the antibody concentration and the data were fitted with a sigmoidal (four-parameter logistic) dose-response model using Graph Pad Prism™ software. The potency of each antibody was determined by calculating EC₅₀.
Regarding B3, the “Ratio of 100 nM antibody binding HEK293-hLAG3 to HEK293 cells” value (“Ratio … to HEK293 cells” for short) was 99.8.

B4: the “Ratio … to HEK293 cells” value is 38.8.

Consider B5, for which the “Ratio … to HEK293 cells” value stood at 19.8.

On to B6, for which the “Ratio … to HEK293 cells” value was found to be 20.1.

Turning to B7, the “Ratio … to HEK293 cells” value amounted to 8.9.
